Results published in patent US20230220063A1, “IL-1BETA BINDING ANTIBODIES FOR USE IN TREATING CANCER” (NOVARTIS AG, priority 2017, published 2023).

Legend:
[1] = system: patients with a prior heart attack and inflammatory atherosclerosis; experiment: CANTOS primary endpoint: major adverse cardiovascular events (MACE); assay type: in vivo, human; details: in combination with standard of care
Excerpt: The present invention arose, at least in part, from the analysis of the data generated from the CANTOS trial, which is a randomized, double-blind, placebo-controlled, event-driven trial. […] Participants were followed for incident cancer diagnoses over a median follow-up period of 3.7 years.
MACE is a composite of cardiovascular death, non-fatal myocardial infarction and non-fatal stroke.

[2] = system: vasculature in trabecular bone; experiment: Blocking IL-1β signalling: blood vessels in the bone microenvironment of mice; assay type: in vivo
Method: Vasculature was visualised following CD34 and endomucin immunohistochemistry and the concentration of vascular endothelial growth factor (VEGF) and endothelin-1 in serum and/or bone marrow was determined by ELISA. Effects on bone volume were measured by Micro computed tomography (uCT).
(§1) Tumor cells, serum, and bone were subsequently resected for downstream analysis.

[3] = system: MDA-MB-231 Luc2-TdTomato cells; experiment: Spontaneous human breast cancer metastasis to human bone implants in NOD SCID mice; assay type: in vivo
Method: To model human breast cancer metastasis to human bone implants two human bone discs were implanted subcutaneously into 10-week old female NOD SCID mice (n=10/group) under isofluorane anaesthetic. Mice received an injection of 0.003 mg vetergesic and Septrin was added to the drinking water for 1 week following bone implantation. Mice were left for 4 weeks before injecting 1×10^5 MDA-MB-231 Luc2-TdTomato, MCF7 Luc2 or T47D Luc2 cells in 20% Martigel/79% PBS/1% […] into the two hind mammary fat pads. Primary tumor growth and development of metastases was monitored weekly using an IVIS […] system (Caliper Life Sciences) following sub-cutaneous injection of 30 mg/ml D-luciferin (Invitrogen). On termination of experiments mammary tumors, circulating tumor cells, serum and bone metastases were resected. RNA was processed for downstream analysis by real time PCR, and cell lysates were taken for protein analysis and whole tissue for histology as previously described (Nutter et al., 2014; Ottewell et al., 2014a).
as §1
Whole blood was centrifuged at 10,000 g for 5 minutes and the serum removed for ELISA assays. The cell pellet was re-suspended in 5 ml of FSM lysis solution (Sigma-Aldrich, Pool, UK) to lyse red blood cells. Remaining cells were re-pelleted, washed 3x in PBS and re-suspended in a solution of PBS/10% FCS. Samples from 10 mice per group were pooled prior to isolation of TdTomato positive tumor cells using a MoFlow High performance cell sorter (Beckman Coulter, Cambridge UK) with the […] laser line from a Coherent I-90C tenable argon ion (Coherent, Santa Clara, CA). TdTomato fluorescence was detected by a 555LP dichroic long pass and a 580/30 nm band pass filter. Acquisition and analysis of cells was performed using Summit 4.3 software. Following sorting cells were immediately placed in RNA protect cell reagent (Ambion, Paisley, Renfrew, UK) and stored at -80° C. before RNA extraction.

mouse IL-1β = mouse IL-1β (Mus musculus, UniProt P10749); experiment: Cross-reactivity with mouse IL-1β; assay type: binding
Excerpt: A mouse surrogate anti-IL-1β antibody has been developed and is being used to evaluate the effects of blocking IL-1β in mouse models of cancer. This isotype of the surrogate antibody is IgG2a, which is closely related to human IgG1.

[4] = system: post-myocardial infarction patients with elevated hsCRP
[5] = murine model of spontaneous human breast cancer metastasis to human bone

mouse IL-1β, sequence (P10749 118-269): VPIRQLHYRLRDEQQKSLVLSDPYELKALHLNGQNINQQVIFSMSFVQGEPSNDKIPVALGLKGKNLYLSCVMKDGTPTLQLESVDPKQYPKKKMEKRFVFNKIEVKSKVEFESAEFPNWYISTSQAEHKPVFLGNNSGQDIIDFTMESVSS

## canakinumab: high-affinity, fully human monoclonal antibody of the IgG1/k to interleukin-1β; INN number 8836
[1]
  risk of major adverse cardiovascular events (MACE): reduces the risk of major adverse cardiovascular events
[2]; 24 hours Ilaris, control 0.09 mm
  length of new blood vessels: 0.06 mm
[2]; compared with control
  endothelin 1 and VEGF in the bone marrow (ELISA): reduced concentrations
[2]; mice treated for 96 hours
  reduction in VEGF concentration: 46%
  reduction in endothelin-1 concentration: 47%
[2]; p < 0.01 vs control
  average length of CD34^+ blood vessels in trabecular bone: reduced the average length of CD34^+ blood vessels
[3]; 1 mg/kg IL-1Ra daily or 10 mg/kg canakinumab s.c. every 14 days from day 7, control 7 out of 10
  mice with metastasis detected in human bone implants: 1 out of 10
[3]; Placebo 3.60E+06
  bone metastasis, photons/sec mean values: 6.01E+04 photons/sec
[3]; compared with control group
  size of bone metastases: smaller than those detected in the control group
[3]; mouse, in vivo
  bone turnover and neovascularisation: reduced bone turnover and neovascularisation
[3]; [5]
  bone metastasis: significantly reduced bone metastasis
  primary tumour growth: increasing primary tumour growth
[3]; placebo 108 tumor cells/ml
  tumor cells counted in whole blood: 3 tumor cells/ml
Mouse IL-1β
  cross-reactivity with mouse IL-1β: does not cross-react
[4]; canakinumab groups vs placebo
  all-cause mortality, HR: 0.94
  non-cardiovascular mortality, HR: 0.97
[4]; in vivo
  Anemia (AE reports): 275 (1.11)
  Erythrocytes (at 12 months): High (>6.8): 4 (0.07) N (%)
  Erythrocytes (at 12 months): Low (<3.3): 19 ( 0.32) N (%)
  Erythrocytes (at 12 months): Normal (3.3-6.8): 6002 (99.6) N (%)
  Leucocytes (at 12 months): High (>15,000): 20 (0.33) N (%)
  Leucocytes (at 12 months): Low (<3000): 27 (0.45) N (%)
  Leucocytes (at 12 months): Normal (3000-<15000): 5978 (99.2) N (%)
  Leukopenia (AE reports): 100 (0.40)
  Neutropenia (AE reports): 25 (0.10)
  Neutrophils (at 12 months): Grade 1 (1500-<LLN): 14 (0.24) N (%)
  Neutrophils (at 12 months): Grade 2 (1000-<1500): 28 (0.47) N (%)
  Neutrophils (at 12 months): Grade 3 (500-<1000): 5 (0.08) N (%)
  Neutrophils (at 12 months): Grade 4 (<500): 0 (0.00) N (%)
  Neutrophils (at 12 months): Normal N (%): 5891 (99.2) N (%)
  Platelets (at 12 months): Grade 1 (75,000-<LLN): 782 (13.0) N (%)
  Platelets (at 12 months): Grade 2 (50,000-<75,000): 10 (0.17) N (%)
  Platelets (at 12 months): Grade 3 (25,000-<50,000): 4 (0.07) N (%)
  Platelets (at 12 months): Grade 4 (<25,000): 0 (0.00) N (%)
  Platelets (at 12 months): Normal N (%): 5216 (86.8) N (%)
  Thrombocytopenia (AE reports): 150 (0.60)
[4]; similar rates in canakinumab and placebo treated groups
  Serious tuberculosis infections: 0.06%
